Source: patent US20110059095A1 (Regeneron, published 2011)
Where no end group is shown, it is not given here. The star is where a group is joined. Biotin = O=C1N[C@H]2[C@H](CS[C@H]2CCCCC(=O)*)N1

T1: Peptide C (human PAR-2), N-terminal biotinylated (Human)
T1 construct: also called Peptide C N-Term
T1 peptide: Biotin-GGGGSSLIGKV

T2: Peptide A (human PAR-2), unbiotinylated (Human)
T2 construct: also called Peptide A No Biotin
T2 peptide: GTNRSSKGRSLIGKVDGT

T3: Peptide K (human PAR-1), unbiotinylated (Human)
T3 peptide: ATNATLDPRSFLLRNPND

T4: Peptide L (human PAR-3), unbiotinylated (Human)
T4 peptide: DTNNLAKPTLPIKTFRGA

T5: Peptide M (human PAR-4), unbiotinylated (Human)
T5 peptide: ESGSTGGGDDSTPSILPAP

T6: Peptide G (rat PAR-2), unbiotinylated (Rat (Rattus norvegicus))
T6 construct: also called Peptide G No Biotin
T6 peptide: GPNSKGRSLIGRLDTP

T7: Peptide H (rabbit PAR-2) (Rabbit (Oryctolagus cuniculus))
T7 peptide: GTNKTSKGRSLIGRNTGS

T8: Peptide I (dog PAR-2) (Dog (Canis familiaris))
T8 peptide: GTNRTSKGRSLIGKTDSS

T9: Peptide E (mouse PAR-2), N-terminal biotinylated (Mouse (Mus musculus), N-terminal biotin via G4S linker)
T9 construct: also called Peptide E N-Term
T9 peptide: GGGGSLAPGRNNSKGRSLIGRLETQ

T10: Peptide G (rat PAR-2), N-terminal biotinylated (Rat (Rattus norvegicus), N-terminal biotin via G4S linker)
T10 construct: also called Peptide G N-Term
T10 peptide: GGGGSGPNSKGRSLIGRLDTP

T11: Peptide G (rat PAR-2), C-terminal biotinylated (Rat (Rattus norvegicus), C-terminal biotin via G4S linker)
T11 construct: also called Peptide G C-Term
T11 peptide: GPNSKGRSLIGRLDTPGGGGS

T12: Peptide E (mouse PAR-2), unbiotinylated (Mouse (Mus musculus))
T12 construct: also called Peptide E No Biotin
T12 peptide: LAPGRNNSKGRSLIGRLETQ

T13: Peptide D (N-terminal domain of human PAR-2-mouse IgG2a) (Human)
T13 chain: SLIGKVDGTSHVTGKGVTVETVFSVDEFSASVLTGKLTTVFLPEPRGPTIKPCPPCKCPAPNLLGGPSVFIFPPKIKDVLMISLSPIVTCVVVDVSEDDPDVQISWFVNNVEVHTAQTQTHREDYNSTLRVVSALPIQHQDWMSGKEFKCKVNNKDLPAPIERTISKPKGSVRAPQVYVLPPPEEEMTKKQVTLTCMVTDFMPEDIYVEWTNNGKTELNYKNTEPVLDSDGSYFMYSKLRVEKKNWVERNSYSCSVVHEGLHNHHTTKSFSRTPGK


Legend:
[1] = biological target: T1, Peptide C (human PAR-2), N-terminal …; assay: SPR, peptide immobilized
[2] = biological target: T2, Peptide A (human PAR-2), unbiotinylated; assay: SPR, antibody captured
[3] = biological target: T3, Peptide K (human PAR-1), unbiotinylated; assay: SPR, antibody captured
[4] = biological target: T4, Peptide L (human PAR-3), unbiotinylated; assay: SPR, antibody captured
[5] = biological target: T5, Peptide M (human PAR-4), unbiotinylated; assay: SPR, antibody captured
[6] = biological target: T6, Peptide G (rat PAR-2), unbiotinylated; assay: SPR, antibody captured
Method: (§1) Equilibrium dissociation constants (KD values) for antigen binding to selected purified PAR-2 antibodies were determined by surface kinetics using a real-time surface plasmon resonance biosensor assay. Antibody was captured on either a rabbit anti-mouse IgG polyclonal antibody (GE Healthcare, Piscataway, N.J.) surface or a goat anti-human IgG polyclonal antibody (Jackson Immuno Research Lab, West Grove, Pa.) surface created through direct amine chemical coupling to a BIACORE™ CM5 sensor chip to form a captured antibody surface. […] Antigen-antibody binding and dissociation were monitored in real time at room temperature. Kinetic analysis was performed to calculate KD and half-life of antigen/antibody complex dissociation (Table 10). For those antibodies where no T_{1/2} value is shown, steady state analysis was used to calculate the KD value. NB: no binding observed under current experimental conditions. ND: not determined.

[7] = biological target: T7, Peptide H (rabbit PAR-2); assay: SPR, antibody captured
Method: as §1

[8] = biological target: T8, Peptide I (dog PAR-2); assay: SPR, antibody captured
Method: as §1

[9] = biological target: T9, Peptide E (mouse PAR-2), N-terminal …; assay: peptide ELISA titration
[10] = biological target: T6, Peptide G (rat PAR-2), unbiotinylated; assay: peptide ELISA titration
[11] = biological target: T10, Peptide G (rat PAR-2), N-terminal …; assay: peptide ELISA titration
[12] = biological target: T11, Peptide G (rat PAR-2), C-terminal …; assay: peptide ELISA titration
[13] = biological target: T9, Peptide E (mouse PAR-2), N-terminal …; assay: SPR, peptide immobilized
[14] = biological target: T10, Peptide G (rat PAR-2), N-terminal …; assay: SPR, peptide immobilized
[15] = biological target: T12, Peptide E (mouse PAR-2), unbiotinylated; assay: peptide ELISA titration; ELISA titration, bivalent IgG on peptide-coated plate
Method: (§2) Anti-PAR-2 antibodies were tested for their ability to bind to the PAR-2 peptides. Various PAR-2 Peptides (Table 3) were coated onto 96-well plates at a concentration of 2 μg/ml and incubated overnight followed by blocking in a suitable blocking agent for one hour. […] Purified anti-PAR-2 antibodies were added to the plate coated with PAR-2 peptides to a final concentration ranging from 0.2 to 2.0 μg/ml and incubated for one hour at room temperature. Detection of bound antibodies was determined with Horse-Radish Peroxidase (HRP) conjugated anti-mouse or human IgG (Jackson Immuno Research Lab, West Grove, Pa.) and developed by standard colorimetric response using tetramethylbenzidine (TMB) substrate. Absorbance was read at OD₄₅₀ for 0.1 second.
(§3) In another experiment, selected anti-PAR-2 antibodies cloned onto human IgG4 were tested for binding to unbiotinylated and biotinylated forms of PAR-2 peptides (Peptides A, E, F and G; as described above). […] Absorbance values at 450 nm were analyzed using a sigmoidal dose-response model in GraphPad Prism (GraphPad Software, Inc., La Jolla, Calif.) and EC₅₀ values were reported (Table 9). EC₅₀ values are defined as the antibody concentration required to achieve 50% maximal binding to PAR-2 peptide.

[16] = biological target: T12, Peptide E (mouse PAR-2), unbiotinylated; assay: peptide ELISA titration; ELISA titration, antibody 13.3 nM to 0.22 pM, sigmoidal fit
Method: as §2, §3

[17] = biological target: T13, Peptide D (N-terminal domain of human …); assay: peptide ELISA

Binder	binding result [1]	Kd [2] [nM]	T1/2 [2] [s]	binding result [3]	binding result [4]	binding result [5]	Kd [6] [nM]	T1/2 [6] [s]	Kd [8] [nM]	T1/2 [8] [s]	EC50 [9] [nM]	EC50 [10] [nM]	EC50 [11] [nM]	EC50 [12] [nM]	Kd [13] [nM]	T1/2 [13] [s]	Kd [14] [nM]	T1/2 [14] [min]	EC50 [15] [nM]	binding result [7]	also measured
H4H584P (antibody, human IgG4, V domains shown, also called H1H584P variable regions) VH: QVQLVESGGGVVQPGRSLRLSCVASGFTFSRYGMHWVRQAPGKGLEWVVVISYDGINKYYADSVKGRFTISRDNSKNTVYLQMNSLRAEDTAVYYCAKGDFWSGYFDYWGQGTLVTVSS VL: DIVMTQTPLSSPVTLGQPASISCRSSQSLVHSDGNTYLSWLHQRPGQPPRLLIYKISNRFSGVPDRFSGSGAGTDFTLQISRVEAEDVGIYYCMQATQFPTFGGGTKVEIK	no binding	22	43.8	no binding	no binding	no binding	246	7.8	–	–	0.511	0.013	0.012	0.015	> 100	–	1.39	15	2.15	no binding	–
H4H579P (antibody, human IgG4, V domains shown, also called H1H579P variable regions) VH: QVQLVESGGGVVQPGRSLRLSCVASGFTFSRYGMHWVRQAPGKGLEWLIVISYDGINKYYADSVKGRFTISRDNSKNTVYLQMNSLRAEDTGVYYCAKGDFWSGYFDYWGQGTLVTVSS VL: DIVMTQTPLSSPVTLGQPASISCRSSQSLVHSDGNTYLSWLHQRPGQPPRLLIYKISNRFSGVPDRFSGSGAGTDFTLQISRVEAEDVGIYYCMQGTQFPTFGGGTKVEIK	no binding	15	240	no binding	no binding	no binding	134	27	311	15.6	0.54	0.055	0.059	0.044	3.4	1200	1.16	38	–	–	EC50 [16]: 0.713 nM
H4H581P (antibody, human IgG4, V domains shown, also called mAb H4H581P; H1H581P variable regions) VH: QVQLVESGGGVVQPGRSLRLSCVASGFTFSRYGIHWVRQAPGKGLEWVIVISYDGINKYYADSVKGRFTISRDNSKNTVYLQMNSLRAEDTAVYYCAKGDFWSGYFDYWGQGTLVTVSS VL: DIVMTQTPLSSPVTLGQPASISCRSSQSLVHSDGNTYLSWLHQRPGQPPRLLIYKISNRFSGVPDRFSGSGAGTDFTLQISRVEAEDVGIYYCMQATQFPTFGGGTKVEIK	–	9.44	84	–	–	–	40.2	37.8	143	4.2	0.032	0.02	0.019	0.013	1.13	1260	0.354	62	0.029	no binding	binding result [17]: binds; Kd [1]: > 100 nM

Second part, led by results:

binding result [1]	Kd [2] [nM]	T1/2 [2] [s]	binding result [3]	binding result [4]	binding result [5]	Kd [6] [nM]	T1/2 [6] [s]	Kd [8] [nM]	T1/2 [8] [s]	EC50 [9] [nM]	EC50 [10] [nM]	EC50 [11] [nM]	EC50 [12] [nM]	Kd [13] [nM]	T1/2 [13] [s]	Kd [14] [nM]	T1/2 [14] [min]	EC50 [15] [nM]	binding result [7]	Binder	also measured
no binding	37.1	22.2	no binding	no binding	no binding	530	4.2	320	9.6	0.014	0.012	0.015	0.63	1.68	660	1.49	13	0.019	–	H4H583P (antibody, human IgG4, V domains shown, also called H1H583P variable regions) VH: QVQLVESGGGVVQPGMSLRLSCTASGFTFRRYGMHWVRQAPGKGLEWVAVIWYDGSNKYYADSVKGRFTITRDNSKNTLYLQMNSLRAEDTAIYFCASEITIGDWFDPRGQGTLVTVSS VL: AIQMTQSPSSLSASVGDRVTITCRASQGIRNDLGWFQQKPGKVPKLLIYAASTLHSGVPSRFSGSGFGTDFTLTISSLQPEDFATYYCLQDFNYPLTFGGGTKVEIK	Kd [7]: 189 nM; T1/2 [7]: 10.2 s
–	8.78	222	–	–	–	162	19.8	372	11.4	0.189	0.018	0.017	0.021	> 100	–	1.36	35	–	–	H4H585P (antibody, human IgG4, V domains shown, also called H1H585P variable regions) VH: QVQLVESGGGVVQPGRSLRLSCVASGFTFSRYGMHWVRQAPGKGLEWLIVISYDGINKYYADSVKGRFTISRDNSKNTVYLQMNSLRAEDTAVYYCAKGDFWSGYFDYWGQGTLVTVSS VL: DIVMTQTPLSSPVTLGQPASISCRSSQSLVHSDGNTYLSWLHQRPGQPPRLLIYKISNRFSGVPDRFSGSGAGTDFTLQISRVEAEDVGIYYCMQGTQFPTFGGGTKVEIK	EC50 [16]: 0.308 nM
no binding	–	–	no binding	no binding	no binding	–	–	–	–	–	–	–	–	–	–	–	–	–	no binding	H4H588N (antibody, human IgG4, V domains shown, also called H2M588N variable regions) VH: EVQLLESGGGLVQPGGSLRLSCAASGFTFSSYAMTWVRQAPGKGLYWVSAISGGRGSAYYADSVKGRFTISRDNSKNTLYLQMNSLRAEDTAVYYCAKEGDSGYDLAYWGRGTLVTVSS VL: DIQMTQSPSSLSASVGDRVTITCRARQGISNNLAWLQQKPGKAPKSLIYAASSLQSGIPSKFSGSGSGTYFTLTISSLQPEDFATYYCQQYKSSPLTFGGGTKVEIK	binding result [17]: binds; binding result [8]: no binding
